Paper PMC4963854 (2016)

Columns and labels:
Fluo-Ia = Fluo-Ia (Streptococcus pyogenes); assay: fluorescence polarization
Fluo-IIa = Fluo-IIa (Streptococcus pyogenes); assay: fluorescence polarization

B1: Epsilon antitoxin (protein)
chain: AVTYEKTFEIEIINELSASVYNRVLNYVLNHELNKNDSQLLEVNLLNQLKLAKRVNLFDYSLEELQAVHEYWRSMNRYSKQVLNKEKVA
Kd (Fluo-Ia): 74.5 nM | Kd (Fluo-IIa): 170 nM
